In article PMC3741624:

Target: human plasma fibronectin, manually deposited single Fn fibers (human)

ratio of ALP positive hMSCs on stretched Fn fibers after 7 days with the function-blocking antibody against α5β1 (clone JBS5), against no antibody [%] | ratio of ALP positive hMSCs on relaxed Fn fibers after 7 days with the function-blocking antibody against αvβ3 (clone 23C6), against no antibody [%] | Substance
31 |  | integrin α5β1 (from UniProt P08648 42-1049; P05556 21-798) (receptor)
 | 30 | integrin αvβ3 (from UniProt P06756 31-1048; P05106 27-788) (receptor)
